The target in test [1] is T1, CD24 (human, UniProt P25063 27-59).
T1 chain (looked up): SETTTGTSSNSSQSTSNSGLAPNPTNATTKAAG
As to the kind of experiment: cell-based or functional assay.

Test [2] deals with T1, CD24. The experiment in a line: cell-based or functional assay.

B1: KH16 (antibody, mouse IgG2a, kappa, V domains shown)
VH: DVQLQESGPDLVKPSQSLSLTCTVTGYSITSGYTWHWIRQFPGNKLEWMGYIQYSGSTNYNPSLKSRISFTRDTSKNQFFLQLNSVTTEDTATYYCARGTTGGLDYWGQGTTLTVSS
VL: DIVMSQSPSSLTVSVGEKITMSCKSSQSLLYSSDQKNYLAWYQQNPGQSPKLLIYWASTKASGVPDRFTGSGSGTDFTLTISSVKAEDLAVYYCQQYYIYPLTFGSGTKLEIKR
In the case of B1, the “Phagocytosis rate (%) (MCF-7 tumor cells by human PBMC-derived M2 macrophages, antibody 5 µg/ml)” value (“Phagocytosis rate (%)” for short) with CD24 [1] is 6.8%. Besides, the “Phagocytosis rate % (A549 tumor cells by human PBMC-derived M2 macrophages, antibody 5 µg/ml)” value (“Phagocytosis rate %” below) with CD24 [2] is 12.3%.

B2: KH06 (antibody, V domains shown)
VH: DVQLQESGPDLVNPSQSLSLTCTVTGYSISRGYSWHWLRRFPGNKLEWMGFIHYSGTTNYNPSLKSRISFTRDTSKNQFFLQLNSLTTEDTATYYCLRGTDRSFDYWGQGTTLTVSS
VL: DIVMSQSPSSLVVSVGEKISMSCKSSQSLLYSNNQKNYLAWYQQIPGQSPKLLIYWASTRESGVPDRFTGSGSGTDFTLTISSVKAEDLAVYYCQQYYIYPLTFGSGTKLEIKR
As for B2, the “Phagocytosis rate (%)” value with CD24 [1] turned out to be 4.3%. For the same molecule, the “Phagocytosis rate %” value in the test with CD24 [2] came out at 10.9%.

B3: KH27 (antibody, mouse IgG2b, kappa, V domains shown)
VH: DVQLQESGPDLVKPSQSLSLTCTVTGYSITRGYTWHWIRQFPGNKLEWMGYIQFSGSTKYNPSLKSRFSITRDTSKNQFFLQLNSVTTEDTATYYCARGTTTALDYWGQGTSVTVSS
VL: DIVMSQSPSSLAVSIGEKVTMNCQSSQSLLYSSNQKNYLVWYQQKPGQSPKLLIHWASTRESGVPDRFTGSGSGTDFTLTISSVKAEDLAVYYCQQYYIYPFTFGSGTKLEIKR
With B3, in the test with CD24 [2], the “Phagocytosis rate %” value was 10.6%.

B4: KH12 (antibody, mouse IgG2a, kappa, V domains shown)
VH: DVQLQESGPDLVKPSHSFSLTCTVTGYSITRGYSWHWIRQFPGNKLEWMGYIHYSGNTNYNPSLKSRFSFTRDTSKNQFFLNLTSLTSEDTATYYCSRGSTWAFDHWGQGTILTVSS
VL: DIVMSQSPSSLTVSVGEKVTMSCKSSQSLLYSSDQKNYLTWYQQKPGQSPKLLIYWASTRYSGVPDRFTGSGSGTDFTLTISSVKAEDLAVYYCQQYYIYPFTFGSGTKLEIKR
For B4, the “Phagocytosis rate %” value in the test with CD24 [2] was determined as 11.1%.

B5: KH02 (antibody, mouse IgG2a, kappa, V domains shown)
VH: DVQLQESGPDLVKPSHSLSLTCTVTGYSITRGYSWHWIRQFPGNKLEWMGYIHYSGSTNYNPSLKSRISFTRDTSKNQFFLNLTSLTSEDTATYYCSRGSTWAFDHWGQGTILTVSS
VL: DIVMSQSPSSLAVSVGEKITMSCKSSQSLLYSNNQKNYLAWYQQIPGQSPKLLIYLASTRESGVPDRFTGSGSGTDFTLTISSVKAEDLAVYYCQQYFIYPMSFGSGTKLEIKR
In the case of B5, the “Phagocytosis rate (%)” value with CD24 [1] turned out to be 3%. The “Phagocytosis rate %” value with CD24 [2] came to 10.3%.

B6: KH01 (antibody, mouse IgG2a, kappa, V domains shown)
VH: DVQLQESGPDLVKPSQSLSLTCTVTGHSITRGYSWHWIRQFPGNKLEWMGYIHHRGTTNYNPSLKSRISFTRDTSKNQFFLQLNSLTTEDTATYFCSRGTNSAFDYWGQGTTLTVSS
VL: DIQMTQTTSSLSASLGDRVTISCRASQDISNYLNWYQQKPDGTVKLLIYYTSRLHSGVPSRFSGSGSGTDYSLTISNLEQEDIATYFCQQGNTLPHTFGGGTKLEIKR
On to B6, for which the “Phagocytosis rate (%)” value with CD24 [1] was determined as 6.2%. In the test with CD24 [2], the “Phagocytosis rate %” value was found to be 11.8%.

B7: KH21 (antibody, mouse IgG2a, kappa, V domains shown)
VH: DVQLQESGPDLVKPSQSLSLTCTVTGHSITRGYSWHWIRQFPGNKLEWMGYIHHRGTTNYNPSLKSRISFTRDTSKNQFFLQLNSLTTEDTATYFCSRGTNSAFDYWGQGTTLTVSS
VL: DIVMSQSPSSLTVSVGEKITMSCKSSQSLLYSSDQKNYLAWYQQNPGQSPKLLIYWASTKASGVPDRFTGSGSGTDFTLTISSVKAEDLAVYYCQQYYIYPLTFGSGTKLEIKR
For the molecule B7, the “Phagocytosis rate %” value with CD24 [2] was determined as 10.2%.

B8: KH33 (antibody, mouse IgG2a, kappa, V domains shown)
VH: DVQLQESGPDLVKPSQSLSLTCTVTGHSITRGYSWHWIRQFPGNKLEWMGYIHHRGTTNYNPSLKSRISFTRDTSKNQFFLQLNSLTTEDTATYFCSRGTNSAFDYWGQGTTLTVSS
VL: QIVLTQSPAIMSASPGEKVTMTCSASSSISYMHWYQQKPGTSPKRWIYDTSKLASGVPARFSGSGSGTSYSLTISSMEAEDAATYYCHQRSSYPCTFGGGTKLEIKR
As for B8, in the test with CD24 [2], the “Phagocytosis rate %” value came to 18.3%.

B9: KH05 (antibody, mouse IgG2b, kappa, V domains shown)
VH: DVQLQESGPDLVKPSQSLSLTCTVTGHSITNGYSWHWIRQFPGNKLEWMGYIHHSGSTNYNPSLKSRISFTRDTSKNQFFLQLNSLTTEDTATYYCLRGTDRSFDYWGQGTTLTVSS
VL: DIVMSQSPSSLVVSVGEKISMSCKSSQSLLYSNNQKNYLAWYQQIPGQSPKLLIYWASTRESGVPDRFTGSGSGTDFTLTISSVKAEDLAVYYCQQYYIYPLTFGSGTKLEIKR
In the case of B9, the “Phagocytosis rate (%)” value with CD24 [1] came to 3.2%. For the same molecule, in the test with CD24 [2], the “Phagocytosis rate %” value turned out to be 10.4%.

B10: KH29 (antibody, mouse IgG2b, kappa, V domains shown)
VH: DVQLQESGPDLVKPSQSLSLTCTVTGHSITRGYSWHWIRQFPGNKLEWMGYIHHRGTTNYNPSLKNRISFTRDTSKNQFFLQLNSLTTEDTATYFCSRGTNSAFDYWGQGTTLTVSS
VL: DIVMSQSPSSLAVSVGEKVTLNCKSSQSLLYSKNQKNYSAWYQQKPGQSPKLLIYWASTRESGVPDRFTGSGSGTDFTLTISSVKAEDLAVYYCQQYYIYPLTFGAGTKLELKR
As to B10, the “Phagocytosis rate %” value with CD24 [2] turned out to be 8.95%.

B11: KH25 (antibody, mouse IgG2b, kappa, V domains shown)
VH: DVQLQESGPDLVKPSQSLSLTCTVTGHSITRGYSWHWIRQFPGNKLEWMGYIHHRGSTNYNPSLKSRISFTRDTSKNQFFLQLNSLTTEDTATYFCSRGTNSAFDYWGQGTTLTVSS
VL: DIVMSQSPSSLVVSVGEKISMSCKSSQSLLYSNNQKNYLAWYQQIPGQSPKLLIYWASTRESGVPDRFTGSGSGTDFTLTISSVKAEDLAVYYCQQYYIYPLTFGSGTKLEIKR
Regarding B11, in the test with CD24 [1], the “Phagocytosis rate (%)” value was 6.5%. Besides, the “Phagocytosis rate %” value with CD24 [2] is 11%.

B12: KH03 (antibody, mouse IgG2a, kappa, V domains shown)
VH: DVQLQESGPDLVKPSQSLSLTCTVTGHSITRGYSWHWIRQFPGNKLEWMGYIHHRGSTNYNPSLKSRISFTRDTSKNQFFLQLNSLTTEDTATYFCSRGTNSAFDYWGQGTTLTVSS
VL: DIVMSQSPSSLTVSVGEKITMSCKSSQSLLYSSDQKNYLAWYQQNPGQSPKLLIYWASTRASGVPDRFTGSGSGTDFTLTISSVKAEDLAIYYCQQYYIYPLTFGSGTKLEIKR
B12: in the test with CD24 [1], the “Phagocytosis rate (%)” value is 3.6%. Further, the “Phagocytosis rate %” value with CD24 [2] came out at 11.9%.

B13: KH19 (antibody, mouse IgG2b, kappa, V domains shown)
VH: DVQLQESGPDLVKPSQSLSLTCTVTGHSITNGYSWHWIRQFPGNKLEWMGYIHHSGSTNYNPSLKSRISFTRDTSKNQFFLQLNSLTTEDTATYYCLRGTDRSFDYWGQGTTLTVSS
VL: DIVMSQSPSSLAVSVGEKVTVSCKSSQSLLYSSDQKNYLTWYQQKPGQSPKLLIYWASTRESGVPDRFTGGGSGTDFTLTISSVRAEDLAVYYCQQYFIYPFTFGSGTKLEIKR
As to B13, the “Phagocytosis rate %” value in the test with CD24 [2] turned out to be 10.3%.

B14: KH04 (antibody, mouse IgG2a, kappa, V domains shown)
VH: DVQLQESGPDLVKPSQSLSLTCTVTGHSITRGYSWHWIRQFPGNKLEWMGYIHHRGSTNYNPSLKSRISFTRDTSKNQFFLQLNSLTTEDTATYFCLRGTNSAFDYWGQGTTLTVSS
VL: DIVMSQSPSSLTVSVGEKITMSCKSSQSLLYSSDQKNYLAWYQQNPGQSPKLLIYWASTKASGVPDRFTGSGSGTDFTLTISSVKAEDLAVYYCQQYYIYPLTFGSGTKLEIKR
For B14, the “Phagocytosis rate %” value with CD24 [2] was found to be 12.8%.

B15: KH10 (antibody, mouse IgG2a, kappa, V domains shown)
VH: DVQLQESGPDLVKPSQSLSLTCTVTGHSITRGYSWHWIRQFPGNKLEWMGYIHHRGSTNYNPSLKSRISFTRDTSKNQFFLQLNSLTTEDTATYFCSRGTNSAFDYWGQGTTLTVSS
VL: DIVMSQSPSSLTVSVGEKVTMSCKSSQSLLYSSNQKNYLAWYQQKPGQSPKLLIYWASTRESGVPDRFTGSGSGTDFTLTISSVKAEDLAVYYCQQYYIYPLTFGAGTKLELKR
For the molecule B15, in the test with CD24 [2], the “Phagocytosis rate %” value was determined as 12.1%.

B16: KH14 (antibody, mouse IgG2b, kappa, V domains shown)
VH: DVQLQESGPDLVKPSQSLSLTCTVTGHSITNGYSWHWIRQFPGNKLEWMGYIHHSGSTNYNPSLKSRISFTRDTSKNQFFLQLNSLTTEDTATYYCLRGTDRSFDYWGQGTTLTVSS
VL: DIVMSQSPSSLAVSVGENITMTCKSSQSLLYSNNQKNYLTWYQQNPGQSPKLLIYWASTRESGVPDRFTGSGSGTDFTLTISSVKAEDLAVYYCQQYYIYPFTFGSGTKLEIKR
B16: the “Phagocytosis rate (%)” value with CD24 [1] was determined as 3.4%. Also, in the test with CD24 [2], the “Phagocytosis rate %” value was 11.2%.

B17: KH07 (antibody, mouse IgG2b, kappa, V domains shown)
VH: DVQLQESGPDLEKPSQSLSLTCTVTGYSITRGYSWHWIRQFPGNKLEWMGYIHYSGSTKYNPSLKSRVSFTRDTSKNQFFLQLNSLSPEDTATYYCSRGSDRAFDYWGQGTTLTVSS
VL: DIVMSQSPSSLAVSIGEKVTMNCQSSQSLLYSNNQKNYLVWYQQKPGQSPKLLIHWASTRESGVPDRFTGSGSGTDFTLTISSVKAEDLAVYYCQQYYIYPFTFGSGTKLEIKR
For the molecule B17, the “Phagocytosis rate %” value with CD24 [2] was 10.1%.
